Source: the supplement of paper PMC10126150
± gives the standard deviation of the averaged measurements.

tested on: ATP; assay: switch fluorescence ratio, 500 uM ATP over buffer (Cy3 cluster intensity, sum of 5 cycles each) (fold (ratio)); higher = stronger signal-on switching upon ATP binding; sequences stand for … in TCGTCGGCAGCGTCAGATGTGTATAAGAGACAGTTTTTTTTTTTTTTTTTTTTTTTTT…TC; details: aptamer strand: ATP DNA aptamer (quencher-CACCTGGGGGAGTATTGCGGAGGAAGG + anchor), 100 nM annealed; ATP concentration: 500 uM
Method in brief: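 After annealing to 100 nM quencher-labelled ATP aptamer, Cy3-labelled switching-strand clusters on a modified Illumina MiSeq flow-cell were imaged in selection buffer. A second image followed after 15 min with 500 uM ATP at 22 °C, and five such buffer/ATP cycles were done, each separated by NaOH stripping and re-annealing. The fluorescence ratio, averaged per switch-domain sequence, is summed target-cycle over summed buffer-cycle Cy3 intensity per cluster, with clusters outside 100-1000 RFU excluded.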
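Further: ATP exposure 15 min at 22 °C before imaging.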

Row | Sequence | switch fluorescence ratio
1 | AGACGAAAGA | 1.02 ± 0.027
2 | AGACGATTGT | 0.985 ± 0.018
3 | AGACGCAGGG | 1.034 ± 0.0053
4 | AGACGCAGTG | 0.9834 ± 0.0038
5 | AGACGCGGTG | 1.044 ± 0.0038
6 | AGACGGGATT | 1.03 ± 0.021
7 | AGACGGGCAC | 1.074 ± 0.0063
8 | AGACGGGGCC | 1.01 ± 0.018
9 | AGACGGGGTC | 0.9848 ± 0.0021
10 | AGACGGGTGC | 1.08 ± 0.074
11 | AGACGGTATG | 1.02 ± 0.0061
12 | AGACGGTTTG | 1.01 ± 0.017
13 | AGACGTTTTT | 1 ± 0.033
14 | AGACTACTAC | 1.12 ± 0.025
15 | AGACTAGCCA | 0.981 ± 0.081
16 | AGACTCTCG | 1.02 ± 0.098
17 | AGACTCTGGT | 0.969 ± 0.015
18 | AGACTGCCTG | 0.971 ± 0.077
19 | AGACTGGGGC | 1.03 ± 0.03
20 | AGACTTATTT | 1.01 ± 0.013
21 | AGAGAACTTG | 0.983 ± 0.1
22 | AGAGAAGAGA | 0.998 ± 0.023
23 | AGAGAATACG | 1 ± 0.031
24 | AGAGACAGCT | 0.994 ± 0.05
25 | AGAGACGGCA | 1.01 ± 0.032

Row | Sequence | switch fluorescence ratio
26 | AGAGAGATGG | 0.977 ± 0.018
27 | AGAGAGCAAG | 1.07 ± 0.043
28 | AGAGATAGGG | 1.01 ± 0.019
29 | AGAGATGAGA | 1.02 ± 0.031
30 | AGAGATGAGG | 0.974 ± 0.042
31 | AGAGCATGAT | 1.03 ± 0.024
32 | AGAGCGGGCT | 1.04 ± 0.036
33 | AGAGCGTGGT | 0.999 ± 0.023
34 | AGAGGAGTCT | 0.9706 ± 0.0019
35 | AGAGGAGTGT | 0.943 ± 0.0098
36 | AGAGGCGAGG | 0.9913 ± 0.0013
37 | AGAGGCTCAG | 1.08 ± 0.069
38 | AGAGGCTTTT | 1.02 ± 0.046
39 | AGAGGGATGG | 0.9919 ± 0.0076
40 | AGAGGGGAAG | 1.005 ± 0.0087
41 | AGAGGGGTCT | 1.02 ± 0.043
42 | AGAGGGTTGG | 0.986 ± 0.022
43 | AGAGGGTTGT | 0.992 ± 0.031
44 | AGAGGGTTTG | 0.998 ± 0.025
45 | AGAGGTATCT | 0.9872 ± 0.0046
46 | AGAGGTCTGT | 0.986 ± 0.0056
47 | AGAGGTCTTG | 0.979 ± 0.029
48 | AGAGGTGACA | 0.999 ± 0.061
49 | AGAGGTTGCA | 0.994 ± 0.032
50 | AGAGGTTGCG | 0.955 ± 0.073

Row | Sequence | switch fluorescence ratio
51 | AGAGTACGGC | 1.09 ± 0.017
52 | AGAGTAGGGT | 1 ± 0.0043
53 | AGAGTATTAG | 1 ± 0.013
54 | AGAGTCAACT | 1 ± 0.042
55 | AGAGTCATGT | 1.01 ± 0.029
56 | AGAGTCATTA | 0.995 ± 0.012
57 | AGAGTCGATT | 1.014 ± 0.0028
58 | AGAGTGGCAG | 1.01 ± 0.021
59 | AGAGTGGGGG | 0.971 ± 0.065
60 | AGAGTGTTTT | 1 ± 0.028
61 | AGAGTTTGGG | 0.988 ± 0.0099
62 | AGATAAAACG | 1.02 ± 0.076
63 | AGATAATCGC | 0.987 ± 0.03
64 | AGATAGGAG | 0.989 ± 0.027
65 | AGATATTCGG | 0.984 ± 0.07
66 | AGATATTTCG | 1.02 ± 0.028
67 | AGATCGGATA | 1.01 ± 0.024
68 | AGATCTACAT | 1.01 ± 0.016
69 | AGATGACTGA | 0.997 ± 0.048
70 | AGATGAGGTG | 1.01 ± 0.019
71 | AGATGCCGGA | 1 ± 0.027
72 | AGATGGGGCG | 0.955 ± 0.088
73 | AGATGGTACT | 0.9668 ± 4.6e-05
74 | AGATGGTCTG | 1.01 ± 0.032
75 | AGATGGTGGG | 1 ± 0.025

Row | Sequence | switch fluorescence ratio
76 | AGATGTCAGC | 0.9708 ± 0.0063
77 | AGATGTCGTT | 0.997 ± 0.039
78 | AGATTCGTCA | 0.988 ± 0.018
79 | AGATTGGATA | 1.01 ± 0.036
80 | AGATTGGGCT | 0.997 ± 0.03
81 | AGATTTAAAG | 0.98 ± 0.034
82 | AGATTTAAGT | 0.985 ± 0.022
83 | AGATTTGAGC | 0.972 ± 0.035
84 | AGATTTGTCG | 0.993 ± 0.068
85 | AGATTTTAGG | 0.988 ± 0.012
86 | AGCAAAAAGG | 0.997 ± 0.054
87 | AGCAAACTTA | 1.14 ± 0.043
88 | AGCAAATTCG | 1.04 ± 0.016
89 | AGCAAGGGCG | 1.06 ± 0.074
90 | AGCAATCGGT | 1.6 ± 0.42
91 | AGCAATTTCG | 1.42 ± 0.081
92 | AGCACCGGGT | 1.02 ± 0.018
93 | AGCACGAAGG | 0.992 ± 0.04
94 | AGCACTCTAT | 1.04 ± 0.024
95 | AGCACTTTAT | 1.05 ± 0.073
96 | AGCAGACTGG | 0.988 ± 0.0033
97 | AGCAGAGGGA | 1.01 ± 0.011
98 | AGCAGAGGGT | 0.994 ± 0.04
99 | AGCAGGAGGA | 1 ± 0.031
100 | AGCAGGATGC | 0.987 ± 0.013

Row | Sequence | switch fluorescence ratio
101 | AGCAGGGTTG | 1.029 ± 0.01
102 | AGCAGGTGGC | 1.13 ± 0.045
103 | AGCATATAGG | 1.009 ± 0.0059
104 | AGCATGGCTT | 1.04 ± 0.054
105 | AGCATGGTTG | 1.01 ± 0.026
106 | AGCATGTATC | 1.07 ± 0.012
107 | AGCATTGTGA | 0.998 ± 0.051
108 | AGCATTTAGG | 1.02 ± 0.035
109 | AGCATTTCTT | 0.98 ± 0.042
110 | AGCCATGATG | 0.979 ± 0.036
111 | AGCCCGTCGT | 0.99 ± 0.022
112 | AGCCCTCGTT | 1 ± 0.043
113 | AGCCGAAAGG | 1.024 ± 0.0025
114 | AGCCGCGCAG | 1.035 ± 0.0056
115 | AGCCGGGGGC | 1.004 ± 0.002
116 | AGCCGGGTGT | 1.34 ± 0.47
117 | AGCCGTATGA | 1.013 ± 0.0087
118 | AGCCTGATCT | 1.036 ± 0.0053
119 | AGCCTGGGCT | 0.99 ± 0.014
120 | AGCCTGTATG | 0.9542 ± 0.0046
121 | AGCCTTAGGG | 1 ± 0.02
122 | AGCCTTTTTT | 0.982 ± 0.011
123 | AGCGATGTCG | 0.9885 ± 0.0014
124 | AGCGATTCTG | 1.02 ± 0.032
125 | AGCGCTGGCG | 1 ± 0.049

Row | Sequence | switch fluorescence ratio
126 | AGCGGAAGAA | 1.02 ± 0.024
127 | AGCGGAGAGG | 1.006 ± 0.0096
128 | AGCGGAGTAT | 0.998 ± 0.063
129 | AGCGGATTCT | 0.984 ± 0.041
130 | AGCGGATTGG | 1.02 ± 0.061
131 | AGCGGATTTG | 0.966 ± 0.014
132 | AGCGGCAACG | 1.08 ± 0.098
133 | AGCGGCCTGG | 0.992 ± 0.014
134 | AGCGGCTAAT | 0.981 ± 0.011
135 | AGCGGCTCGC | 1.007 ± 0.0047
136 | AGCGGGGCGG | 1.02 ± 0.017
137 | AGCGGGGCTG | 1.01 ± 0.029
138 | AGCGGGTCGG | 1 ± 0.021
139 | AGCGGTGTGC | 0.9738 ± 0.0031
140 | AGCGGTTAAT | 0.984 ± 0.019
141 | AGCTAAAGGC | 1.03 ± 0.032
142 | AGCTAACGAC | 1.83 ± 0.067
143 | AGCTATCAGC | 1.01 ± 0.047
144 | AGCTCAGGGA | 1.04 ± 0.027
145 | AGCTGAGGCT | 0.999 ± 0.015
146 | AGCTGAGGGG | 1.01 ± 0.012
147 | AGCTGATACT | 2 ± 0.061
148 | AGCTGATTTT | 0.982 ± 0.033
149 | AGCTGGAACA | 1 ± 0.018
150 | AGCTGGAATA | 1 ± 0.06

Row | Sequence | switch fluorescence ratio
151 | AGCTGGGGGG | 0.982 ± 0.044
152 | AGCTGGGGTC | 0.9851 ± 0.0063
153 | AGCTGGGTTT | 1 ± 0.021
154 | AGCTGTCTCA | 0.991 ± 0.017
155 | AGCTGTGATG | 1.01 ± 0.058
156 | AGCTGTGTGT | 1.012 ± 0.0047
157 | AGCTGTTTCA | 0.973 ± 0.02
158 | AGCTTTATTA | 0.9984 ± 0.0032
159 | AGGAAAAACT | 1.02 ± 0.047
160 | AGGAAAGGGC | 0.983 ± 0.034
161 | AGGAACGCGC | 1.02 ± 0.027
162 | AGGAAGGGT | 0.9978 ± 0.0079
163 | AGGAAGGTCG | 0.969 ± 0.013
164 | AGGAAGGTTT | 0.993 ± 0.041
165 | AGGAATATTT | 1.04 ± 0.095
166 | AGGAATGAGG | 0.958 ± 0.011
167 | AGGAATTCCG | 0.992 ± 0.054
168 | AGGAATTTAG | 1.02 ± 0.03
169 | AGGACAGATA | 1.01 ± 0.017
170 | AGGACGCGAC | 1.548 ± 0.014
171 | AGGACGCTGG | 0.9449 ± 0.0088
172 | AGGACGGCAG | 0.964 ± 0.13
173 | AGGACTCTCA | 1.01 ± 0.032
174 | AGGACTTTCT | 1.036 ± 0.0013
175 | AGGAGAAGAC | 1.03 ± 0.049

Row | Sequence | switch fluorescence ratio
176 | AGGAGACTTA | 0.9877 ± 0.0047
177 | AGGAGATGTA | 1.029 ± 0.0061
178 | AGGAGCAAGG | 1.26 ± 0.072
179 | AGGAGCCTTT | 0.9927 ± 0.0011
180 | AGGAGCTCTT | 0.998 ± 0.0056
181 | AGGAGGGGAG | 1.024 ± 0.0053
182 | AGGAGGGGTT | 1.01 ± 0.037
183 | AGGAGGTATT | 0.99 ± 0.026
184 | AGGAGGTTTG | 0.97 ± 0.015
185 | AGGAGTGCTG | 0.995 ± 0.052
186 | AGGAGTTGGA | 0.987 ± 0.013
187 | AGGAGTTGGG | 0.97 ± 0.046
188 | AGGAGTTTGC | 1.068 ± 0.0073
189 | AGGATAAGCT | 1.1 ± 0.17
190 | AGGATAGATA | 1 ± 0.012
191 | AGGATAGCAA | 1.3 ± 0.023
192 | AGGATAGGAG | 0.9957 ± 0.0014
193 | AGGATAGGGG | 0.991 ± 0.026
194 | AGGATATTGG | 1.01 ± 0.02
195 | AGGATCATGG | 1.01 ± 0.021
196 | AGGATCCTCG | 0.992 ± 0.018
197 | AGGATCGATG | 1 ± 0.05
198 | AGGATCGGGG | 1.01 ± 0.013
199 | AGGATCTACT | 1.01 ± 0.021
200 | AGGATGAGGT | 0.978 ± 0.057
